Publication PMC6515374, “Virus-Like Particle Facilitated Deposition of Hydroxyapatite Bone Mineral on Nanocellulose after Exposure to Phosphate and Calcium Precursors” (International Journal of Molecular Sciences, 2019)

Target: the molecule itself
Assay: transmission electron microscopy; purified VLPs on carbon coated copper grids, stained with 2% uranyl acetate, 80 kV; also confirmed by atomic force microscopy (Figure S1)

B1: Tobacco mosaic virus coat protein subunit with the E50Q and D77N mutations (assembles into TMV virus-like particles) (natural protein, UniProt P69687 1-159, looked up)
chain: MSYSITTPSQFVFLSSAWADPIELINLCTNALGNQFQTQQARTVVQRQFSQVWKPSPQVTVRFPDSDFKVYRYNAVLNPLVTALLGAFDTRNRIIEVENQANPTTAETLDATRRVDDATVAIRSAINNLIVELIRGTGSYNRSSFESSSGLVWTSGPAT
notes: Tobacco mosaic virus coat protein, codon optimized for bacterial expression, in pET-21a(+) at NdeI/XhoI with a stop codon to prevent fusion to the His tag; No tag: a stop codon stands before the vector's His tag; Assembles without viral RNA into rods of 18 nm diameter and variable length; also called TMV VLPs; TMV CP; source: E. coli BL21(DES)pLysS, purified (chloroform, PEG 8000/NaCl …)
Does B1 bind?
Result: binds
